Data from paper PMC10713552 (Communications Biology, 2023).

How the values were obtained:
[1] = biological target: D614G-Hexapro (WT) spike ectodomain (SARS-CoV-2 Wuhan-Hu-1 D614G, D614G); test: BLI
[2] = biological target: Omicron BA.1 spike protein ectodomain (BLI) (SARS-CoV-2 Omicron BA.1, strain); test: BLI

Binder | Kd [1] [µM] | koff [1] [s⁻¹] | kon [1] [M⁻¹ s⁻¹] | Kd [2] [µM] | koff [2] [s⁻¹] | kon [2] [M⁻¹ s⁻¹]
0337-LN3_T65Y (antibody, V domains shown, source: Expi293F, transfected) VH: QVQLQQWGPGLVNPSETLSLTCSVSGGSFATENYYWSWIRQHPGEGLEWIGNIYFSGNYYYNPSLNNRFTISFDTSKNHLSLKLPSVTAADTAVYYCARGTIYFDLSGYRRVDPFHIWGQGTMVIVSS VL: not shown | 0.0873 | 0.000393 | 4500 | 0.0117 | 0.000305 | 26100
0335-LN3_T65V (antibody, V domains shown, source: Expi293F, transfected) VH: QVQLQQWGPGLVNPSETLSLTCSVSGGSFATENYYWSWIRQHPGEGLEWIGNIYFSGNVYYNPSLNNRFTISFDTSKNHLSLKLPSVTAADTAVYYCARGTIYFDLSGYRRVDPFHIWGQGTMVIVSS VL: not shown | 0.135 | 0.000502 | 3730 | 0.0492 | 0.00196 | 39700
0327-LN3_T65L (antibody, V domains shown, source: Expi293F, transfected) VH: QVQLQQWGPGLVNPSETLSLTCSVSGGSFATENYYWSWIRQHPGEGLEWIGNIYFSGNLYYNPSLNNRFTISFDTSKNHLSLKLPSVTAADTAVYYCARGTIYFDLSGYRRVDPFHIWGQGTMVIVSS VL: not shown | 0.183 | 0.00127 | 6950 | 0.0586 | 0.00147 | 25100
0350-MN3_T65Q (antibody, V domains shown, source: Expi293F, transfected) VH: QVQLQQWGPGLVNPSETLSLTCSVSGGSFATENYYWSWIRQHPGEGLEWIGNIYFSGNQYYNPSLNNRFTISFDTSKNHLSLKLPSVTAADTAVYYCARGTIYFDMSGYRRVDPFHIWGQGTMVIVSS VL: not shown | 0.643 | 0.00015 | 233 | 0.0385 | 0.000871 | 22700
0388-YN3_T65Q (antibody, V domains shown, source: Expi293F, transfected) VH: QVQLQQWGPGLVNPSETLSLTCSVSGGSFATENYYWSWIRQHPGEGLEWIGNIYFSGNQYYNPSLNNRFTISFDTSKNHLSLKLPSVTAADTAVYYCARGTIYFDYSGYRRVDPFHIWGQGTMVIVSS VL: not shown | 1.91 | 0.00186 | 973 | 0.0377 | 0.00058 | 15400
0383-YN3_T65K (antibody, V domains shown, source: Expi293F, transfected) VH: QVQLQQWGPGLVNPSETLSLTCSVSGGSFATENYYWSWIRQHPGEGLEWIGNIYFSGNKYYNPSLNNRFTISFDTSKNHLSLKLPSVTAADTAVYYCARGTIYFDYSGYRRVDPFHIWGQGTMVIVSS VL: not shown | 0.682 | 0.000178 | 261 | 0.0506 | 0.00099 | 19600
0348-MN3_T65N (antibody, V domains shown, source: Expi293F, transfected) VH: QVQLQQWGPGLVNPSETLSLTCSVSGGSFATENYYWSWIRQHPGEGLEWIGNIYFSGNNYYNPSLNNRFTISFDTSKNHLSLKLPSVTAADTAVYYCARGTIYFDMSGYRRVDPFHIWGQGTMVIVSS VL: not shown | 0.13 | 9.93e-05 | 765 | 0.043 | 0.00196 | 45700
0347-MN3_T65M (antibody, V domains shown, source: Expi293F, transfected) VH: QVQLQQWGPGLVNPSETLSLTCSVSGGSFATENYYWSWIRQHPGEGLEWIGNIYFSGNMYYNPSLNNRFTISFDTSKNHLSLKLPSVTAADTAVYYCARGTIYFDMSGYRRVDPFHIWGQGTMVIVSS VL: not shown | 0.88 | 0.000233 | 264 | 0.0397 | 0.00209 | 52700
0373-N3_T65V (antibody, V domains shown, source: Expi293F, transfected) VH: QVQLQQWGPGLVNPSETLSLTCSVSGGSFATENYYWSWIRQHPGEGLEWIGNIYFSGNVYYNPSLNNRFTISFDTSKNHLSLKLPSVTAADTAVYYCARGTIYFDRSGYRRVDPFHIWGQGTMVIVSS VL: not shown | 0.324 | 0.000461 | 1420 | 0.016 | 0.000565 | 35200
0307-IN3_T65K (antibody, V domains shown, source: Expi293F, transfected) VH: QVQLQQWGPGLVNPSETLSLTCSVSGGSFATENYYWSWIRQHPGEGLEWIGNIYFSGNKYYNPSLNNRFTISFDTSKNHLSLKLPSVTAADTAVYYCARGTIYFDISGYRRVDPFHIWGQGTMVIVSS VL: not shown | 0.000208 | 5.6e-05 | 269000 | 0.0317 | 0.000872 | 27500
0312-IN3_T65Q (antibody, V domains shown, source: Expi293F, transfected) VH: QVQLQQWGPGLVNPSETLSLTCSVSGGSFATENYYWSWIRQHPGEGLEWIGNIYFSGNQYYNPSLNNRFTISFDTSKNHLSLKLPSVTAADTAVYYCARGTIYFDISGYRRVDPFHIWGQGTMVIVSS VL: not shown | 0.00223 | 0.000511 | 229000 | 0.0132 | 0.000887 | 67300
0309-IN3_T65M (antibody, V domains shown, source: Expi293F, transfected) VH: QVQLQQWGPGLVNPSETLSLTCSVSGGSFATENYYWSWIRQHPGEGLEWIGNIYFSGNMYYNPSLNNRFTISFDTSKNHLSLKLPSVTAADTAVYYCARGTIYFDISGYRRVDPFHIWGQGTMVIVSS VL: not shown |  |  | 184 | 0.0157 | 0.00102 | 64800
0338-MN3_T65A (antibody, V domains shown, source: Expi293F, transfected) VH: QVQLQQWGPGLVNPSETLSLTCSVSGGSFATENYYWSWIRQHPGEGLEWIGNIYFSGNAYYNPSLNNRFTISFDTSKNHLSLKLPSVTAADTAVYYCARGTIYFDMSGYRRVDPFHIWGQGTMVIVSS VL: not shown | 0.373 | 0.000121 | 325 | 0.025 | 0.00154 | 61800
0345-MN3_T65K (antibody, V domains shown, source: Expi293F, transfected) VH: QVQLQQWGPGLVNPSETLSLTCSVSGGSFATENYYWSWIRQHPGEGLEWIGNIYFSGNKYYNPSLNNRFTISFDTSKNHLSLKLPSVTAADTAVYYCARGTIYFDMSGYRRVDPFHIWGQGTMVIVSS VL: not shown | 0.346 | 7.97e-05 | 230 | 0.0414 | 0.00172 | 41600
0341-MN3_T65F (antibody, V domains shown, source: Expi293F, transfected) VH: QVQLQQWGPGLVNPSETLSLTCSVSGGSFATENYYWSWIRQHPGEGLEWIGNIYFSGNFYYNPSLNNRFTISFDTSKNHLSLKLPSVTAADTAVYYCARGTIYFDMSGYRRVDPFHIWGQGTMVIVSS VL: not shown | 0.146 | 0.000179 | 1230 | 0.0412 | 0.00171 | 41500
0317-IN3_T65W (antibody, V domains shown, source: Expi293F, transfected) VH: QVQLQQWGPGLVNPSETLSLTCSVSGGSFATENYYWSWIRQHPGEGLEWIGNIYFSGNWYYNPSLNNRFTISFDTSKNHLSLKLPSVTAADTAVYYCARGTIYFDISGYRRVDPFHIWGQGTMVIVSS VL: not shown | 0.00141 | 0.000282 | 199000 | 0.0163 | 0.000834 | 51200
0360-N3_T65F (antibody, V domains shown, source: Expi293F, transfected) VH: QVQLQQWGPGLVNPSETLSLTCSVSGGSFATENYYWSWIRQHPGEGLEWIGNIYFSGNFYYNPSLNNRFTISFDTSKNHLSLKLPSVTAADTAVYYCARGTIYFDRSGYRRVDPFHIWGQGTMVIVSS VL: not shown | 0.355 | 0.000217 | 612 | 0.0185 | 0.000659 | 35700
0318-IN3_T65Y (antibody, V domains shown, source: Expi293F, transfected) VH: QVQLQQWGPGLVNPSETLSLTCSVSGGSFATENYYWSWIRQHPGEGLEWIGNIYFSGNYYYNPSLNNRFTISFDTSKNHLSLKLPSVTAADTAVYYCARGTIYFDISGYRRVDPFHIWGQGTMVIVSS VL: not shown | 0.00107 | 0.000222 | 207000 | 0.0294 | 0.00117 | 39800
0330-LN3_T65P (antibody, V domains shown, source: Expi293F, transfected) VH: QVQLQQWGPGLVNPSETLSLTCSVSGGSFATENYYWSWIRQHPGEGLEWIGNIYFSGNPYYNPSLNNRFTISFDTSKNHLSLKLPSVTAADTAVYYCARGTIYFDLSGYRRVDPFHIWGQGTMVIVSS VL: not shown | 0.686 | 0.00219 | 3190 | 0.0326 | 0.00229 | 70200
0340-MN3_T65E (antibody, V domains shown, source: Expi293F, transfected) VH: QVQLQQWGPGLVNPSETLSLTCSVSGGSFATENYYWSWIRQHPGEGLEWIGNIYFSGNEYYNPSLNNRFTISFDTSKNHLSLKLPSVTAADTAVYYCARGTIYFDMSGYRRVDPFHIWGQGTMVIVSS VL: not shown | 0.371 | 7.27e-05 | 196 | 0.0482 | 0.0021 | 43700
0331-LN3_T65Q (antibody, V domains shown, source: Expi293F, transfected) VH: QVQLQQWGPGLVNPSETLSLTCSVSGGSFATENYYWSWIRQHPGEGLEWIGNIYFSGNQYYNPSLNNRFTISFDTSKNHLSLKLPSVTAADTAVYYCARGTIYFDLSGYRRVDPFHIWGQGTMVIVSS VL: not shown | 0.00118 | 0.00083 | 703000 | 0.0382 | 0.00223 | 58400
0370-N3_T65R (antibody, V domains shown, source: Expi293F, transfected) VH: QVQLQQWGPGLVNPSETLSLTCSVSGGSFATENYYWSWIRQHPGEGLEWIGNIYFSGNRYYNPSLNNRFTISFDTSKNHLSLKLPSVTAADTAVYYCARGTIYFDRSGYRRVDPFHIWGQGTMVIVSS VL: not shown | 0.111 | 3.63e-05 | 328 | 0.0121 | 0.000266 | 22000
0377-YN3_T65D (antibody, V domains shown, source: Expi293F, transfected) VH: QVQLQQWGPGLVNPSETLSLTCSVSGGSFATENYYWSWIRQHPGEGLEWIGNIYFSGNDYYNPSLNNRFTISFDTSKNHLSLKLPSVTAADTAVYYCARGTIYFDYSGYRRVDPFHIWGQGTMVIVSS VL: not shown | 0.634 | 0.000153 | 242 | 0.0134 | 0.000269 | 20100
0374-N3_T65W (antibody, V domains shown, source: Expi293F, transfected) VH: QVQLQQWGPGLVNPSETLSLTCSVSGGSFATENYYWSWIRQHPGEGLEWIGNIYFSGNWYYNPSLNNRFTISFDTSKNHLSLKLPSVTAADTAVYYCARGTIYFDRSGYRRVDPFHIWGQGTMVIVSS VL: not shown |  |  | 190 | 0.0425 | 0.000694 | 16300
